Here are results for five substances from doi:10.1101/2023.02.06.527249.

In experiment [1] the target is HLA-C*05:01 (1-278) refolded with β2-microglobulin (1-99) and P2-AV (…). In words: SPR.
For experiment [2], the target named is HLA-C*05:01 (1-278) refolded with β2-microglobulin (1-99) and P2-AW (…). The experiment is described as follows: SPR. In general terms: In SPR one partner is held on a chip, and binding of the other changes the refractive index at the surface.
In experiment [3] the target is HLA-C*05:01 (1-278) refolded with β2-microglobulin (1-99) and P2-IP (…). In words: SPR.
For experiment [4], the target named is HLA-C*16:02 on cells loaded with P9 with the Q8S substitution (…) (human | human (endogenous in 721.221)). The experiment is described as follows: flow cytometry on cells. For orientation: In flow cytometry, cells or beads pass a laser one at a time.
The target of experiment [5] is HLA-C*05:01 on cells loaded with P2-MW with p6 Asn (human | human (endogenous in 721.221)). The experiment is described as follows: flow cytometry on cells.
The target of experiment [6] is HLA-C*08:02 on cells loaded with P2-MW with p6 Ile (human | human (endogenous in 721.221)). The experiment is described as follows: flow cytometry on cells.
For experiment [7], the target named is HLA-C*08:02 on cells loaded with P2-MW with p6 Leu (human | human (endogenous in 721.221)). The experiment is described as follows: flow cytometry on cells.
For experiment [8], the target named is HLA-C*08:02 on cells loaded with P2-MW with p6 Lys (human | human (endogenous in 721.221)). In words: flow cytometry on cells.
The target in experiment [9] is HLA-C*08:02 on cells loaded with P2-MW with p6 Pro (human | human (endogenous in 721.221)). The experiment is described as follows: flow cytometry on cells.
The target of experiment [10] is HLA-C*08:02 on cells loaded with P2-MW with p6 Val (human | human (endogenous in 721.221)). In words: flow cytometry on cells.

Bounds are passed on as bounds.

A word on the Kd: it is the equilibrium constant for the complex coming apart. Read a high Kd as lower affinity. With “2DL1 (1-224), recombinant, refolded (from UniProt P43626 22-245) (domain or fragment)”, the values for the Kd in experiment [1], in [2] and in [3] were 1 µM, 1.1 µM and 0.44 µM, respectively.
In the same order, the values of “2DS1 (3-200), recombinant, refolded (domain or fragment)” are 2.6 µM, 1.9 µM and 2.3 µM.
In [2], “2DS4 (3-200), recombinant, refolded (domain or fragment)” yielded a Kd of 2 µM.
Regarding “KIR2DS1*001-Fc (from UniProt Q14954 22-245) (Fc fusion)”, the fold change of binding against unmodified P9 in [4] stood at 5 fold.
Turning to “KIR2DS4*001 KIR-Ig (KIR-Fc) fusion protein (from UniProt P43632 22-245) (Fc fusion)”, the percent of the binding with p6 Gly (P2-MW) in [5] was more than 25%; in experiment [6], more than 50%; in [7], more than 50%; in [8], more than 50%; in experiment [9], more than 50%; in experiment [10], more than 50%.
